Measurements as given in US20180112001A1 (Regeneron, published 2018).
Like-named read-outs stand apart in the source and are kept apart here.

T1: soluble monomeric human MUC16, truncated format encompassing the last five SEA domains of Mucin-16 (human)
T1 construct: also called hMUC16.mmh; MUC16 "nub"
T1 chain: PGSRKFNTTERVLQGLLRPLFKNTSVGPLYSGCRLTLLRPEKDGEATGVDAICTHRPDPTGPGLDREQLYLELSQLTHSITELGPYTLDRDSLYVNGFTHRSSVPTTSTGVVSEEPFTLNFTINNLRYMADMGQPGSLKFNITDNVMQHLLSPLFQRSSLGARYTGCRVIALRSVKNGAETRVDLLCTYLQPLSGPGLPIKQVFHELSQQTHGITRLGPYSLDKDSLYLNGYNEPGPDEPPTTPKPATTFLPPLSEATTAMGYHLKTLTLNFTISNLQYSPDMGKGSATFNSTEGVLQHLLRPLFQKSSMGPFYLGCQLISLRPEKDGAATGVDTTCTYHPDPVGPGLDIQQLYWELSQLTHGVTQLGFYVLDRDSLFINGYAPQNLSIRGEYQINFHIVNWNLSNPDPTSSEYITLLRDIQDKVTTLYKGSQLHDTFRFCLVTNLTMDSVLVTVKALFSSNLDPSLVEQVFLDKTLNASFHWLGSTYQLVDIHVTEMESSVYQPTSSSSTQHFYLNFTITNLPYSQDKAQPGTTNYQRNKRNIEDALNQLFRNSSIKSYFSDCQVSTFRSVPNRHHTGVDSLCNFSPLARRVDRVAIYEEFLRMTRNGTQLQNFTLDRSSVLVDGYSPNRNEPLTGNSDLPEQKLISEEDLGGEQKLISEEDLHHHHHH


Experiments:
[1] = target: T2, human MUC16 (mucin 16), endogenously expressed on cells (human); assay: MSD electrochemiluminescence cell binding; RLU ratio OVCAR-3/SK-OV-3; Ab 16.7 nM
T2 construct: Endogenous MUC16 on OVCAR-3 / OVCAR3-Luc / PEO-1 / HPAC cells; also called hMUC16

[2] = target: T2, human MUC16 (mucin 16), endogenously …; assay: MSD electrochemiluminescence cell binding; RLU ratio OVCAR-3/SK-OV-3; Ab 1.9 nM
[3] = target: T1, soluble monomeric human MUC16, …; assay: SPR Biacore, antibody captured, soluble monomeric hMUC16.mmh injected, 25C
[4] = target: T1, soluble monomeric human MUC16, …; assay: as above

| Binder | Ratio: anti-MUC16 Binding OVCAR-3/SK-OV-3 [1] [ratio] | Ratio: anti-MUC16 Binding OVCAR-3/SK-OV-3 [2] [ratio] | Kd [3] [nM] | koff [3] [s⁻¹] | kon [3] [M⁻¹ s⁻¹] | t ½ [3] [min] | Kd [4] [nM] | koff [4] [s⁻¹] | kon [4] [M⁻¹ s⁻¹] | t1/2 [4] [min] |
| --- | --- | --- | --- | --- | --- | --- | --- | --- | --- | --- |
| H1M7137N (antibody, mouse IgG1, V domains shown, Mouse IgG1 constant region (H1M)) VH: QVQLQESGPGLVKPSETLSLTCTVSGGAINTYYWSWIRQPPGKGLEWIGYIYYRGNTNYNPSLRSRVTISVDTSKNQFFLKLRSVTVADSAVYFCARGWNYRAEYFQHWGQGTVVTVSS VL: not shown | 29 | 77 | 1.72 | 9.09e-05 | 53000 | 127 |  |  |  |  |
| H1H8794P (antibody, V domains shown, Human IgG1 (H1H)) VH: QVQLVESGGGLVKPGGSLRLSCAASGFTFRDYSMSWIRQAPGKGLEWVSYVTFFNSAIYYADSVKGRFTISRDNAKNSLYLQMNSLRAEDTAVYYCAREREPIVGGFDYWGQGTLVTVSS VL: DIQMTQSPSSLSASVGDRVTITCRASQSINSYLNWYQQKPGKAPKLLIYAASSLQGGVPSRFSGGGSGTDFTLTITSLQPEDFATFYCQQSYSSPPITFGQGTRLEIK | 3 | 8 |  |  |  |  | 0.771 | 0.000279 | 362000 | 41 |
| H2M7135N (antibody, mouse IgG2, V domains shown, Mouse IgG2 constant region (H2M)) VH: EVQLVESGGGLVQAGGSLRLSCAASGFTFSYHEMNWVRQAPGKGLEWVSYIGSRGTTKHYADPVKGRFTISRDNAKNSLYLQMNSLRAEDTAVYYCASEVGSILGYSMDVWGQGTTVTVSS VL: DIQMTQSPSSLSASVGDRVTITCRASQSVSRYLNWCQQKPGKAPKLLTYAASSLQSGVPSRFSGSGSGTDFTLTISSLQPEDFAAYFCQQSYSTPPITFGQGTRLEIK | 5 | 30 | 4.27 | 0.000218 | 51000 | 53 |  |  |  |  |
| H1H8770P (antibody, human IgG1, V domains shown, Human IgG1 (H1H)) VH: QVQLVESGGGVVQPGRSLRLSCAASGFTFSDHGMHWVRQAPGKGLEWVAVISYHGSNKHYADSVKGRFTISRDNSKNALYLQMNSLRPEDTAMYYCAKDGYDFWNGYSLFDYWGQGTLVTVSS VL: DIQMTQSPSSLSASVGDRVTITCRASQSISNYLNWYQQKPGKAPKLLIYTASNLLSGVPSRFSGSGSGTDFTLTISSLQPEDFATYYCQQSYSTPPITFGQGTKLEIK | 3 | 9 |  |  |  |  | 1.25 | 0.000308 | 247000 | 38 |
| H1H8790P (antibody, human IgG1, V domains shown, Human IgG1 (H1H)) VH: EVQLVESGGGLVQPGGSLRLSCEASGFTFSNYAMSWVRQAPGKGLEWVSGMSGSGTYPYYADSVKGRFTISRDNSKNMLYLQMNSLRVKDTAVYYCAKDGVDTAMILDTFDLWGQGTMVTVSS VL: not shown | 3 | 8 |  |  |  |  | 7.53 | 0.000761 | 101000 | 15 |

Next, values leading:

| Ratio: anti-MUC16 Binding OVCAR-3/SK-OV-3 [1] [ratio] | Ratio: anti-MUC16 Binding OVCAR-3/SK-OV-3 [2] [ratio] | Kd [3] [nM] | koff [3] [s⁻¹] | kon [3] [M⁻¹ s⁻¹] | t ½ [3] [min] | Kd [4] [nM] | koff [4] [s⁻¹] | kon [4] [M⁻¹ s⁻¹] | t1/2 [4] [min] | Binder |
| --- | --- | --- | --- | --- | --- | --- | --- | --- | --- | --- |
| 5 | 13 |  |  |  |  | 0.286 | 0.000149 | 522000 | 77 | H1H8755P (antibody, human IgG1, V domains shown, Human IgG1 (H1H)) VH: EVQLVESGGGLVQPGRSLRLSCAASGFTFNDYAMHWVRQSPGKGLEWVSGIDWNGGSIDYADSVKGRFTISRDTAKNSLYLQMNSLKVEDTALYYCAKDIGHWNYIGGMDVWGQGTTVTVSS VL: DIQMTQSPSSLSASVGDRVTITCRASQSINIYLNWYQQKPGKAPKFLIYAASSLQTGVPSRFSGSGSGTDFTLTISSLEPEDFATYYCQHSYSTPPITFGQGTRLEIK |
| 4 | 11 |  |  |  |  | 0.614 | 0.000107 | 174000 | 108 | H1H8783P (antibody, human IgG1, V domains shown, Human IgG1 (H1H)) VH: QVQLVESGGGVVQPGRSLRLSCAASGFTFSDHAMHWVRQAPGKGLEWVAVISYHGTDKQYGDSVKGRFTISRDNSKNALYLQMNSLRPEDTAMYYCAKDGYDFWNAYSLFDYWGQGTLVTVSS VL: DIQMTQSPSSLSASVGDRVTITCRASQSISNYLNWYQQKPGKAPKLLIYTASSLLSGVPSRFSGSGSGTDFTLTISSLQPEDFATYYCQQSYSTPPITFGQGTRLEIK |
